According to PMC4708090 (Biochemistry, 2015):
Numbering of substitutions follows the chain as printed. Names may count otherwise.

B1: wt Bfd (C43S mutant of P. aeruginosa bacterioferritin-associated ferredoxin) (natural protein, Pseudomonas aeruginosa)
chain: MYVCLCQGVTDNQIRDAIYEGCCSYREVREATGVGTQCGKCASLAKQVVRETLNDLQSAQPVPAFGTTAFVAA
B2: L5A Bfd (natural protein, Pseudomonas aeruginosa)
chain: B1 chain with L5A
B3: K40A Bfd (natural protein, Pseudomonas aeruginosa)
chain: B1 chain with K40A
B4: Y2F Bfd (natural protein, Pseudomonas aeruginosa)
chain: B1 chain with Y2F
B5: wt BfrB (Pseudomonas aeruginosa bacterioferritin B, 24-mer) (natural protein)
chain: not shown

Experiments:
E85A BfrB = E85A BfrB (Pseudomonas aeruginosa, UniProt Q9HY79 1-158, E85A); experiment: SPR
L68A BfrB = L68A BfrB (Pseudomonas aeruginosa, UniProt Q9HY79 1-158, L68A); experiment: SPR
E81A BfrB = E81A BfrB (Pseudomonas aeruginosa, UniProt Q9HY79 1-158, E81A); experiment: SPR
[1] = target: B5; experiment: SPR
[2] = target: B5; experiment: SPR; remark: listed apart in the source
[3] = target: B5; experiment: SPR; remark: listed apart in the source
[4] = target: B5; experiment: ITC
[5] = target: B5; experiment: SPR; remark: listed apart in the source
SEC = target: the molecule itself; experiment: SEC
[6] = target: B1; experiment: ITC

B1 gave a Kd (E85A BfrB) of 590 ± 2 µM, a Kd (L68A BfrB) of 298 ± 20.5 µM and a Kd (E81A BfrB) of 258 ± 21.5 µM. It also gave a Kd [1] of 2.6 ± 0.4 µM, a koff [1] of 0.069 ± 0.01 s⁻¹ and a kon [1] of 26000 ± 2000 M⁻¹ s⁻¹. The “stoichiometry N” value [2] was 12.7 Bfd per 24-mer BfrB, the Kd [3] was 3.3 ± 0.5 µM and the Kd [4] was 4.2 ± 0.4 µM.

Binder B2 has a Kd [5] of 82 ± 2.5 µM.

With B3 the Kd [5] was 7.7 ± 0.5 µM.

In the case of B4, the Kd [5] is reported as 10.7 ± 0.2 µM.

With B5 the binding result (SEC) was “binds” and the dH [6] was 1.6 ± 0.3 kcal/mol.
